This note sets out measurements from the RNAGym collection of RNA variant scans (doi:10.7554/elife.80360).

The labels stand for the following.
B1: CPEB3 Ribozyme (parent)
chain: GGGGGCCACAGCAGAAGCGUUCACGUCGCGGCCCCUGUCAGAUUCUGGUGAAUCUGCGAAUUCUGCUGU

Variants of B1 are the subject of this data set. Description: self-cleavage, relative activity (ratio to wild type); higher = more cleavage; co-transcriptional.
Take U21A G47U: the self-cleavage is 0.992.
Then U21A G47A, with 0.969; and U21A G47C, with 0.988.
For U21A G41C the value was 0.694; for U21A G41A, 0.855.
As to U21A G41U, the self-cleavage is 0.824.
Then U21C A59U, with 0.581.
Regarding U21C A59G, the self-cleavage was 0.928.
For U21A U46C the value was 0.926; for U21A U46G, 0.934.
Then U21A U46A, with 1.03.
Then U21C C35U, with 0.716; and U21C C35G, with 0.206.
As for U21G U67G, the self-cleavage was 0.579.
For the variant U21A C22G, the self-cleavage is 0.0886.
In the case of U21A C22A, the self-cleavage turned out to be 0.132.
For the variant U21A A59C, the self-cleavage was found to be 0.681.
For U21A A59G the value was 1; for U21C A23U, 0.803; for U21C A23C, 0.608.
As to U21A A42G, the self-cleavage is 0.858.
Regarding U21A A42C, the self-cleavage stood at 0.902.
For U21C U46G the value was 0.991; for U21C U46A, 0.88.
In the case of U21G A52G, the self-cleavage came out at 0.615.
For U21G A52U, the self-cleavage is 0.608.
Then U21G U61C, with 0.214; and U21G U61G, with 0.24.
For U21G U43G the value was 0.324; for U21G U43A, 0.235; for U21G U43C, 0.428.
Take U21A C35U: the self-cleavage was determined as 0.869.
On to U21A C35A, for which the self-cleavage was 0.323.
For U20G U49A the value was 0.26; for U20G U49C, 0.173.
For U20G U49G the value was 0.27; for U21G U69A, 0.667.
In the case of U21G U69C, the self-cleavage amounted to 0.863.
For U21G U69G the value was 0.823.
For U21A U69A the value was 1.01; for U21A U69G, 1.06; for U21A U69C, 1.06.
For U21A A40U the value was 0.896; for U21A A40C, 0.651.
As for U21A A40G, the self-cleavage came to 0.97.
For U21A U62A the value was 0.853; for U21A U62G, 0.798.
For the variant C22A A40C, the self-cleavage was 0.222.
For C22A A40G the value was 0.246; for C22A A40U, 0.235; for U21G C22A, 0.2.
For U21G C22U the value was 0.181.
For U21G C22G the value was 0.227; for U21C U49G, 0.927; for U21C U49C, 0.868.
Regarding U21C U49A, the self-cleavage was 0.847.
Then U21C G25C, with 0.118; and U21C G25U, with 0.13; and U21C G25A, with 0.121.
Then U21A G65C, with 0.6; and U21G U36A, with 0.17; and U21A C32G, with 0.504.
For U21G C33A the value was 0.163.
On to U21G C33G, for which the self-cleavage came to 0.215.
For U21G C33U the value was 0.575.
Take U21G G28U: the self-cleavage turned out to be 0.0808.
For U21G C66A the value was 0.263; for U21G C66G, 0.219.
Regarding U21G C66U, the self-cleavage was 0.529.
With U21C C57A, the self-cleavage came to 0.252.
For the variant U21C C57U, the self-cleavage was found to be 0.379.
For U20G U46C the value was 0.164; for U20G U46A, 0.164.
Consider U21C U26G, for which the self-cleavage came out at 0.459.
Then U21C U26C, with 0.805.
Then U21C A42G, with 0.749; and U21C A42U, with 0.891.
Consider U21A G31A, for which the self-cleavage stood at 0.803.
With U21A G31U, the self-cleavage turned out to be 0.595.
Then U21A G48A, with 1.
For U21A G48U the value was 0.978; for U20G U69C, 0.281.
Take U20G U69G: the self-cleavage came out at 0.322.
Then U21G G50U, with 0.588; and U21G A23U, with 0.483; and U21G A23C, with 0.379.
On to U21G G31A, for which the self-cleavage turned out to be 0.175.
Then U21G G31U, with 0.24.
For U21C G31U the value was 0.395.
Consider U21A U36C, for which the self-cleavage was determined as 0.693.
Consider U21A U36A, for which the self-cleavage came to 0.253.
As to U21A U36G, the self-cleavage was determined as 0.272.
For U21G C63A the value was 0.245.
Then U21C U38G, with 0.432; and U21C U38A, with 0.171.
For U21C U38C the value was 0.808; for C22A A42G, 0.207.
As to C22A A42C, the self-cleavage is 0.251.
For the variant U20G U62G, the self-cleavage is 0.292.
As for U20G U62A, the self-cleavage worked out at 0.183.
As for U21A U53A, the self-cleavage is 0.936.
On to U21A U53G, for which the self-cleavage was found to be 0.863.
Then U21A U53C, with 0.927; and U21A C57U, with 0.447; and U21A C57A, with 0.268.
Then U21A C57G, with 0.361.
For U21A U44C the value was 0.817; for U21A U44G, 0.952; for U21A U44A, 0.901.
With U21G C54G, the self-cleavage is 0.423.
U21G C54U: the self-cleavage turned out to be 0.591.
With U21C G48C, the self-cleavage was 0.967.
Regarding U21C G48U, the self-cleavage was 0.901.
Regarding U21G A42C, the self-cleavage turned out to be 0.303.
Turning to U21G A42U, the self-cleavage stood at 0.503.
For U21A G25C the value was 0.249; for U21A G25A, 0.244.
For the variant U21A G25U, the self-cleavage turned out to be 0.136.
Turning to U21G G68A, the self-cleavage worked out at 0.794.
For U21G G41C the value was 0.276; for U21G G41A, 0.388; for U21G G41U, 0.373.
Then U20G U55C, with 0.148.
In the case of U20G U55A, the self-cleavage is 0.139.
In the case of U20G U55G, the self-cleavage is 0.106.
With U21A A23U, the self-cleavage stood at 0.962.
For U21A A23C the value was 0.969; for U21A A23G, 0.943.
Regarding U21C A40G, the self-cleavage stood at 0.719.
For U21C A40C the value was 0.372; for U21C A40U, 0.642; for U21C G56U, 0.693.
Then U21C G56A, with 0.657.
For the variant C22A A23C, the self-cleavage is 0.202.
For U21C C34G the value was 0.328; for U21C C34A, 0.303; for U21C C34U, 0.898.
Then U21G U46G, with 0.503; and U21G U46A, with 0.537; and U21G A51C, with 0.509.
Then U21G A51G, with 0.54; and U21G A51U, with 0.497.
For the variant U21A C54G, the self-cleavage is 0.936.
For U21A C54U, the self-cleavage turned out to be 0.673.
For U21A C54A the value was 0.872.
As to U21C U64C, the self-cleavage is 0.609.
Turning to U21C U64G, the self-cleavage turned out to be 0.75.
Take U21G U53C: the self-cleavage was found to be 0.354.
For U21G U53G the value was 0.376; for U21C U67C, 0.898; for U21C U67A, 0.921.
Take U21G C24U: the self-cleavage was 0.103.
Then U21G C24A, with 0.106; and U21C U69C, with 1.05; and U21C C33U, with 0.919.
Consider U21A U64A, for which the self-cleavage was 0.91.
As for U21A U64C, the self-cleavage came to 0.874.
For U21C A60U the value was 0.391; for U21C A60G, 0.663; for U21A U43G, 0.833.
U21A U43A: the self-cleavage came to 0.906.
For U21C U43G the value was 0.682.
On to U21C U43A, for which the self-cleavage stood at 0.771.
Then U21A A51G, with 1.01; and U21A A51U, with 0.952; and U21A A51C, with 0.953.
For U21G C35A, the self-cleavage was found to be 0.13.
